Measurements published in paper PMC10734219, “Characterization of the Membrane-Associated Electron-Bifurcating Flavoenzyme EtfABCX from the Hyperthermophilic Bacterium Thermotoga maritima” (Biochemistry, 2023).
Several values for one entry are separate records, joined by “and”; a condition that tells them apart may be missing. Equal entries are not always repeated.

Target: the molecule itself
Experiment: SEC; purified recombinant EtfABCX analysed by size exclusion chromatography; peaks assigned by mass; EtfABCX protomers to superdimer and super-tetramer

B1: Thermotoga maritima EtfABCX holoenzyme (heterotetrameric protomer) (complex)
chain 1: MNVVVCIKQVPDTTNVRIDRKTNNLVREGVPSIINPDDERALELASQLKEKFGATVYVITMGPPQAKEALKDAIAFGLDEAVHLSDRTFAGADTLATTYTLYWGIKKIEERIGKIDLILTGKQAVDGDTGQVGPGLATRFGYALGAYVVRIEEIDPEKKEMVIVRRLDQGFEKIRLKLPAVLTITDELNKPRYADLPNLIRAIRYEPIVWTHKDLGLDPKKCGFFGSPTRVVSTNIPPARKGGDIISKNEDPEVAAEKLIEALKKFEAVRLVEALKPVLEGEKDE
chain 2: MSEKKIIFVLIEHHGGKAHPVSWELIGKARDLASKLENSEVWGVLLGEGLESVAKEAIQRGADKVLYVKNREFNTYVNYLYKKALVDMVRKYRPEIFLIGATLEGRELAGMVATELETGLTADCTGLDIIPDKKLLAMTRPTFGGNLMATIMCPDHRPQMATVRPGVMKELPPDPERTGEIIEEEYDLGTFDKLIEILETIPLQTQVNLEYAPVVVAGGKGVGGPEGFKKLKELADLLGGEVGASRAAVKAGWISPEHQVGQTGKTVRPVLYFACGISGAIQHVVGIKESEIIVAINIDEKAPIFDIADIGIVGDLHKVVPALTAKLRELLNKSGVKK
chain 3: MKIEFDVVVVGAGPSGLSCAYVLAKNGLKVAVVEKGEYPGSKNVMGGVLYVHPLKEIMPDFLEKAANSKALERNVIEQNLWLLGNEGVIKIGHRNVEWKENPNAFTVLRANFDRWFAQEVEKAGALIIPKTKVEDFLRNEKGEIAGVVTSRPKGEIHSKAVVIAEGVNPILTMKAGLRKEDLKPHMVAVAVKEVISVPEDVVNRVFGVEGNDGATIELLGSWSEGMFGMGFLYANRSSVSLGCGVLLEDLRKKKIKPYQLLENLKNHPVISDMLGEYRNNTMEYLAHLIPEGGYYAMPKVYGDRVLVCGDAAMLVNSIHREGSNHAITSGRLAAETLLEAFEKGDFSEKILKNYYLRLKESFILKDLEKYKDLMPTMEKNHQFVEIYPDLANDALKRFLQVDGTPKWDVQKQIADMVLSRRSLIGISLDLLRFWRAVR
chain 4: MRIEDKLYLNRYRTDEENPHLKIKDESICAEKCSDRPCVSCCPADVYEWTESGMEVKFEGCLECGTCRIVCPFGNIEWNYPRGNYGVLYKFG
stoichiometry N: 2 and 4
